Experiments:
PANC-1 Pancreatic = assay: Cytotoxic effect by MTT assay, 48 h; conditions: for Percent cytotoxicity wrt control: 48 h
Experimental: (§1) Cells were treated with Test Items at various concentrations (0.0001 μM-10 μM) for 48 h. The cells corresponding to Positive Control group were treated with Doxorubicin at a concentration ranging from 0.1 μM-100 μM. The Untreated cells were used as Control. After 48 h of incubation, the effect of Test Items on cytotoxicity of cells was determined by MTT assay, the plates were taken out and 20 μl of 5 mg/m1 of MTT 3-(4,5-dimethythiazol-2-yl)-2,5-diphenyl tetrazolium bromide solution was added to all the wells. Cells were incubated for 3 h at 37° C. The supernatant was aspirated. 150 μl of DMSO was added to each well to dissolve formazan crystals. The absorbance of each well was then read at 540 nm using Synergy HT micro plate reader.
(§2) The % Cytotoxicity was calculated using the formula:
(§3) Where, X=Absorbance of cells treated with Test Item; R=Absorbance of Control cells (Untreated cells maintained in growth medium only).
(§4) Selectivity Index was calculated using the formula:
(§5) SI=IC50 in Normal cell/IC50 in cancer cell.
(§6) Activity scores of the Selective Index values were categorized as: • Not selective (SI value ≤1) • Moderately selective (1<SI value <5) • Selective (SI value ≥5)

PA-1 Ovary = assay: Cytotoxic effect by MTT assay, 48 h; conditions: for Percent cytotoxicity wrt control: 48 h
Experimental: as §1, §2, §3, §4, §5, §6

MDA-MB-231 Breast = assay: Cytotoxic effect by MTT assay, 48 h; conditions: for Percent cytotoxicity wrt control: 48 h
Experimental: as §1, §2, §3, §4, §5, §6

U251 MG Brain = assay: Cytotoxic effect by MTT assay, 48 h; conditions: for Percent cytotoxicity wrt control: U251 MG, 48 h
Experimental: as §1, §2, §3, §4, §5, §6

MG-63 Bone = assay: Cytotoxic effect by MTT assay, 48 h; conditions: for Percent cytotoxicity wrt control: 48 h
Experimental: as §1, §2, §3, §4, §5, §6

HT29 Colon = assay: Cytotoxic effect by MTT assay, 48 h; conditions: for Percent cytotoxicity wrt control: 48 h
Experimental: as §1, §2, §3, §4, §5, §6

AGS Stomach = assay: Cytotoxic effect by MTT assay, 48 h; conditions: for Percent cytotoxicity wrt control: AGS, 48 h
Experimental: as §1, §2, §3, §4, §5, §6

KB Cervix = assay: Cytotoxic effect by MTT assay, 48 h; conditions: for Percent cytotoxicity wrt control: KB, 48 h
Experimental: as §1, §2, §3, §4, §5, §6

A549 Lungs = assay: Cytotoxic effect by MTT assay, 48 h; conditions: for Percent cytotoxicity wrt control: 48 h
Experimental: as §1, §2, §3, §4, §5, §6

[1] = Glycan binding study, O-Glycan array containing 94 glycans; conditions: T-antigen and its extended core structures
PBMC Normal = assay: Cytotoxic effect by MTT assay, 48 h; conditions: for Percent cytotoxicity wrt control: PBMC, 48 h
Experimental: as §1, §2, §3

[2] = tested on: bladder cancer cells (T24); assay: Colocalization study in cell organelles, confocal microscopy, FITC-tagged lectin; assay type: cell-based; conditions: 100 μg/mL FITC-labelled, 2 h
Experimental: Study was performed to analyze the localization of SEQ ID NO 2 (test item) in cell organelles using Confocal microscopy.
Test Item provided as aqueous solution was tagged with FITC label at Bioklone Biotech Pvt Ltd. Resultant concentration of FITC tagged test Item was 1 mg/mL.
The stock solution of Test Item was diluted in Serum Free Medium (SFM) at single concentration—100 μg/mL.
Cells were plated on a glass coverslip at a density of 0.1×10^6 cells per well.
Following the incubation cells were washed with PBS (3 washes) and fixed using 4% paraformaldehyde for 10 min at RT. After fixation, cells were permeabilized using 0.5% IGEPAL for 10 min at RT (Permeabilization was not done for cells that were stained with Pan-Cadherin). Post permeabilization, cells were blocked using 5% normal goat serum for 1 hour at RT. Post blocking, cells were treated with organelle specific markers for 1.5 hours at RT followed by secondary antibody for 2 hours at RT.
Following antibodies were used for different organelles:
Post incubation, cells were washed using PBST (3 washes) and PBS (3 washes) and stained with DAPI (nucleus stain) for 3 min at RT.
Cells were washed (3 washes) and mounted on a glass slide using Prolong Glass antifade mountant. Imaging was done using Confocal fluorescence microscope (Make: Olympus FV1000) at AIRF, JNU. Images were captured using software FluoView. […]

B1: SEQ ID NO: 2: recombinant variant of the S. rolfsii lectin amino acid sequence (reported as Rec-2 in WO2010/095143) (protein)
chain: TYKITVRVYQTNPDAFFHPVEKTVWKYANGGTWTITDDQHVLTMGGSGTSGTLRFHADNGESFTATFGVHNYKRWCDIVTNLAADETGMVINQQYYSQKNREEARERQLSNYQVKNAKGRNFQIVYTEAEGNDLHANLIIG
PANC-1 Pancreatic; PANC-1, 0.0001 μM
  Percent cytotoxicity wrt control: 9.5%
PANC-1 Pancreatic; PANC-1, 0.001 μM
  Percent cytotoxicity wrt control: 17%
PANC-1 Pancreatic; PANC-1, 0.01 μM
  Percent cytotoxicity wrt control: 20.5%
PANC-1 Pancreatic; PANC-1, 0.1 μM
  Percent cytotoxicity wrt control: 22.5%
PANC-1 Pancreatic; PANC-1, 1 μM
  Percent cytotoxicity wrt control: 34.4%
PANC-1 Pancreatic; PANC-1, 10 μM
  Percent cytotoxicity wrt control: 36.4%
PANC-1 Pancreatic; read-out: IC50 Values, PANC-1 Pancreatic, after 48 h of treatment
  IC50: > 10000 nM
PA-1 Ovary; PA-1, 0.0001 μM
  Percent cytotoxicity wrt control: 0.9%
PA-1 Ovary; PA-1, 0.001 μM
  Percent cytotoxicity wrt control: −5.6%
PA-1 Ovary; PA-1, 0.01 μM
  Percent cytotoxicity wrt control: 7.4%
PA-1 Ovary; PA-1, 0.1 μM
  Percent cytotoxicity wrt control: 4.5%
PA-1 Ovary; PA-1, 1 μM
  Percent cytotoxicity wrt control: 51%
PA-1 Ovary; PA-1, 10 μM
  Percent cytotoxicity wrt control: 72.2%
PA-1 Ovary; read-out: IC50 Values, PA-1 Ovary, after 48 h of treatment
  IC50: 1540 nM
MDA-MB-231 Breast; MDA-MB-231, 0.0001 μM
  Percent cytotoxicity wrt control: 13.7%
MDA-MB-231 Breast; MDA-MB-231, 0.001 μM
  Percent cytotoxicity wrt control: 15.1%
MDA-MB-231 Breast; MDA-MB-231, 0.01 μM
  Percent cytotoxicity wrt control: 16.2%
MDA-MB-231 Breast; MDA-MB-231, 0.1 μM
  Percent cytotoxicity wrt control: 28.1%
MDA-MB-231 Breast; MDA-MB-231, 1 μM
  Percent cytotoxicity wrt control: 48.5%
MDA-MB-231 Breast; MDA-MB-231, 10 μM
  Percent cytotoxicity wrt control: 66.4%
MDA-MB-231 Breast; read-out: IC50 Values, MDA-MB-231 Breast, after 48 h of treatment
  IC50: 1350 nM
U251 MG Brain; 0.0001 μM
  Percent cytotoxicity wrt control: −9.9%
U251 MG Brain; 0.001 μM
  Percent cytotoxicity wrt control: −13.2%
U251 MG Brain; 0.01 μM
  Percent cytotoxicity wrt control: −14.5%
U251 MG Brain; 0.1 μM
  Percent cytotoxicity wrt control: −5.3%
U251 MG Brain; 1 μM
  Percent cytotoxicity wrt control: 15.9%
U251 MG Brain; 10 μM
  Percent cytotoxicity wrt control: 62.5%
U251 MG Brain; read-out: IC50 Values, U251 MG Brain, after 48 h of treatment
  IC50: 5950 nM
MG-63 Bone; MG-63, 0.0001 μM
  Percent cytotoxicity wrt control: 27%
MG-63 Bone; MG-63, 0.001 μM
  Percent cytotoxicity wrt control: 38.7%
MG-63 Bone; MG-63, 0.01 μM
  Percent cytotoxicity wrt control: 50.4%
MG-63 Bone; MG-63, 0.1 μM
  Percent cytotoxicity wrt control: 59.1%
MG-63 Bone; MG-63, 1 μM
  Percent cytotoxicity wrt control: 72.3%
MG-63 Bone; MG-63, 10 μM
  Percent cytotoxicity wrt control: 74%
MG-63 Bone; read-out: IC50 Values, MG-63 Bone, after 48 h of treatment
  IC50: 12.7 nM
HT29 Colon; HT29, 0.0001 μM
  Percent cytotoxicity wrt control: 14%
HT29 Colon; HT29, 0.001 μM
  Percent cytotoxicity wrt control: 16.6%
HT29 Colon; HT29, 0.01 μM
  Percent cytotoxicity wrt control: 22.5%
HT29 Colon; HT29, 0.1 μM
  Percent cytotoxicity wrt control: 24.7%
HT29 Colon; HT29, 1 μM
  Percent cytotoxicity wrt control: 35.4%
HT29 Colon; HT29, 10 μM
  Percent cytotoxicity wrt control: 54.1%
HT29 Colon; read-out: IC50 Values, HT29 Colon, after 48 h of treatment
  IC50: 9390 nM
AGS Stomach; 0.0001 μM
  Percent cytotoxicity wrt control: 7.8%
AGS Stomach; 0.001 μM
  Percent cytotoxicity wrt control: 8.5%
AGS Stomach; 0.01 μM
  Percent cytotoxicity wrt control: 15.9%
AGS Stomach; 0.1 μM
  Percent cytotoxicity wrt control: 37%
AGS Stomach; 1 μM
  Percent cytotoxicity wrt control: 49.9%
AGS Stomach; 10 μM
  Percent cytotoxicity wrt control: 57.2%
AGS Stomach; read-out: IC50 Values, AGS Stomach, after 48 h of treatment
  IC50: 1720 nM
KB Cervix; 0.0001 μM
  Percent cytotoxicity wrt control: −1.5%
KB Cervix; 0.001 μM
  Percent cytotoxicity wrt control: −2.6%
KB Cervix; 0.01 μM
  Percent cytotoxicity wrt control: −3.9%
KB Cervix; 0.1 μM
  Percent cytotoxicity wrt control: 20.4%
KB Cervix; 1 μM
  Percent cytotoxicity wrt control: 51.2%
KB Cervix; 10 μM
  Percent cytotoxicity wrt control: 54.9%
KB Cervix; read-out: IC50 Values, KB Cervix, after 48 h of treatment
  IC50: 880 nM
A549 Lungs; A549, 0.0001 μM
  Percent cytotoxicity wrt control: −0.5%
A549 Lungs; A549, 0.001 μM
  Percent cytotoxicity wrt control: −15.5%
A549 Lungs; A549, 0.01 μM
  Percent cytotoxicity wrt control: −1.1%
A549 Lungs; A549, 0.1 μM
  Percent cytotoxicity wrt control: −6.9%
A549 Lungs; A549, 1 μM
  Percent cytotoxicity wrt control: 31.9%
A549 Lungs; A549, 10 μM
  Percent cytotoxicity wrt control: 48.2%
A549 Lungs; read-out: IC50 Values, A549 Lungs, after 48 h of treatment
  IC50: ≥ 10000 nM
[1]
  binding profile to O-glycans (in words): strong and broad binding profile
PBMC Normal; 0.0001 μM
  Percent cytotoxicity wrt control: −7.4%
PBMC Normal; 0.001 μM
  Percent cytotoxicity wrt control: 19.9%
PBMC Normal; 0.01 μM
  Percent cytotoxicity wrt control: 24%
PBMC Normal; 0.1 μM
  Percent cytotoxicity wrt control: 44.9%
PBMC Normal; 1 μM
  Percent cytotoxicity wrt control: 49.5%
PBMC Normal; 10 μM
  Percent cytotoxicity wrt control: 43.4%
PBMC Normal; read-out: IC50 Values, PBMC Normal, after 48 h of treatment
  IC50: > 10000 nM
[2]
  colocalization in cell organelles: colocalized in Mitochondria, Endoplasmic reticulum, Golgi bodies and Plasma membrane
  localization in the nuclear envelope: no localization was observed

Source: US20250302974A1, “LECTIN-DRUG CONJUGATES” (UNICHEM LABORATORIES LIMITED, priority 2021, published 2025)
